± gives the standard error. Fewer inactive variants are shown than the library holds.
B1: glmS ribozyme (parent)
chain: AUAAAAGCGCCAGAACUACAGAAAUGUAGUUGACGAGGAGGAGGUUUAUCGAAUUUUCGGCGGAUGCCUCCAAA

Tests used:
Settings in all cases: with glucosamine-6-phosphate
glucosamine-6-phosphate [1] = variants of: B1; assay: self-cleavage kobs at 40 uM GlcN6P; higher = faster cleavage; RNA array
Method in brief: (§1)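 In situ transcription by E. coli RNA polymerase produced barcoded ribozyme variants on sequenced MiSeq chips, and a hybridised Cy3 probe tracked them at 37 °C. Glucosamine-6-phosphate was flowed in at 40 μM to 10 mM in HEPES/KCl/Mg(OAc)2 buffer. kcat and KM were taken from weighted Michaelis–Menten fits of kobs values from exponential decay fits.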

glucosamine-6-phosphate [2] = variants of: B1; assay: self-cleavage kobs at 160 uM GlcN6P; higher = faster cleavage; RNA array
Method in brief: as §1

glucosamine-6-phosphate [3] = variants of: B1; assay: self-cleavage kobs at 640 uM GlcN6P; higher = faster cleavage; RNA array
Method in brief: as §1

glucosamine-6-phosphate [4] = variants of: B1; assay: self-cleavage kobs at 2500 uM GlcN6P; higher = faster cleavage; RNA array
Method in brief: as §1

glucosamine-6-phosphate [5] = variants of: B1; assay: self-cleavage kobs at 10000 uM GlcN6P; higher = faster cleavage; RNA array
Method in brief: as §1

Row | Variant | self-cleavage kobs at 40 uM GlcN6P (glucosamine-6-phosphate [1]) | self-cleavage kobs at 160 uM GlcN6P (glucosamine-6-phosphate [2]) | self-cleavage kobs at 640 uM GlcN6P (glucosamine-6-phosphate [3]) | self-cleavage kobs at 2500 uM GlcN6P (glucosamine-6-phosphate [4]) | self-cleavage kobs at 10000 uM GlcN6P (glucosamine-6-phosphate [5])
1 | AUAAAAGCACCAGAACUACAGAAAUGUAGUUGACGAGGAGGAGGUUUAUCGAAUUUUCGGCGGAUGCGUCCAAA [G9A C68G] | < 1e-05 s⁻¹ | < 1e-05 s⁻¹ | < 1e-05 s⁻¹ | < 1e-05 s⁻¹ | < 1e-05 s⁻¹
2 | AUAAAAGCGCCAGAACUACAGAAAUGUAGUUGACGAGGAGGAGGUUUAUCGAAUUUUGGGCGGUUGCCUCCAAA [C58G A64U] | < 1e-05 s⁻¹ | – | < 1e-05 s⁻¹ | < 1e-05 s⁻¹ | < 1e-05 s⁻¹
3 | AUAAAAGCGCCAGAAAUACAGAAAUGUAGUUGACGACGAGGAGGUUUUCCGGAUUUUCGGCCGAUGCCUCCAAA [C16A G37C A48U U49C A52G G62C] | < 1e-05 s⁻¹ | – | – | – | < 1e-05 s⁻¹
4 | AUAAAAGCGCCAGAACUACAGAAAUGUAGUUGACGAGGAGGAUGUUUCUCGAAUUUUCGGCGGAUGCCUCCAAA [G43U A48C] | < 1e-05 s⁻¹ | < 1e-05 s⁻¹ | < 1e-05 s⁻¹ | < 1e-05 s⁻¹ | < 1e-05 s⁻¹
5 | AUAAAAGCGCCAGAACUACAAAAAUGUAGUUGACGAGGAGGAGGUUUAUCGAAUUUUCGGCGGAUGCCUCCAAA [G21A] | 0.00134 ± 0.00021 s⁻¹ | 0.00268 ± 0.00063 s⁻¹ | 0.00836 ± 0.0012 s⁻¹ | 0.00839 ± 0.0024 s⁻¹ | 0.0758 ± 0.037 s⁻¹
6 | AUAAAAGCGCCAGAACUACAGAAAUGUAGUUGACGAGGAGGAGUUUUAUCGAAUUUUCGGCGGAUGCCUACAAA [G44U C70A] | < 1e-05 s⁻¹ | < 1e-05 s⁻¹ | < 1e-05 s⁻¹ | < 1e-05 s⁻¹ | < 1e-05 s⁻¹
7 | AUAAAAGCGCAAGAACUACAGAAAUGUAGUUGAGGAGGAGGACGUUUAUCUAAUUUUCGCCGGAUGCCUCCAAA [C11A C34G G43C G51U G60C] | < 1e-05 s⁻¹ | – | < 1e-05 s⁻¹ | – | –
8 | AUAAAAGCGCCAAUACUACAGAAAUGUAGUCGACGAGGAGGAGGUUUAUCGAAUUUUCGGCGGAUGCCUCCAAA [G13A A14U U31C] | 7.34e-05 ± 1.8e-05 s⁻¹ | – | – | – | –
9 | AUAAAAGCGGCAGAACUACAGAAAUGUAGUUGACGAGCAGGAGGUUUAUCGAAUUUUCGGCGGAUGCCGCCAAA [C10G G38C U69G] | < 1e-05 s⁻¹ | – | < 1e-05 s⁻¹ | – | –
10 | AUAAAAGCGCCAGAACUACAGAAAUGUAGUUGACGAGAAGGAGGUUUAUCGAAUUUUCGUCGGAUGCCGCCAAA [G38A G60U U69G] | < 1e-05 s⁻¹ | – | – | – | < 1e-05 s⁻¹
11 | AUAAAAGCUCCAGAACUACAGAAAUGUAGUUGUCGAGGAGGAGGUUUAUCGAUUUUUCGGGGGAUGCCUCCAAA [G9U A33U A53U C61G] | < 1e-05 s⁻¹ | – | – | – | –
12 | AUAAAAGCGCCAGAACUACAGAAAUGUAGUUGACGUGGAGGAGGUUUAUCGAAUUUUCGGCGGAUGCCGCCAAA [A36U U69G] | 3.66e-05 ± 8.9e-06 s⁻¹ | 0.000214 ± 3.9e-05 s⁻¹ | 0.000283 ± 5.8e-05 s⁻¹ | 9.73e-05 ± 2.3e-05 s⁻¹ | 0.000107 ± 4.1e-05 s⁻¹
13 | AUAAAAGCUCCAGAUCUACAGAAAUGUAGUUGACGAGGAGAAGGUUUAUCGAAUAUUCGACGGAUGCCUCCAAA [G9U A15U G41A U55A G60A] | < 1e-05 s⁻¹ | – | – | – | < 1e-05 s⁻¹
14 | AUAAAAGCGCAAGAACUACAGAAAUGUAGUUGACGAGGAGGAGGUUUAUCGAUUUUGCGGCGGAUGCCUCAAAA [C11A A53U U57G C71A] | 0.000108 ± 2.7e-05 s⁻¹ | – | 0.000248 ± 7.4e-05 s⁻¹ | 0.000141 ± 6.7e-05 s⁻¹ | 9.23e-05 ± 2.2e-05 s⁻¹
15 | AUAAAAGGGCCAGAACUACAGAAAUGUAGUUGACGAGGAGGAGGUUUAUCGAAUCUUCGGUGGAUGCCUCCAAA [C8G U55C C61U] | < 1e-05 s⁻¹ | – | < 1e-05 s⁻¹ | < 1e-05 s⁻¹ | –
16 | AUAAAAGCGCCAGCCCUACAGAAAUGUAGUUGACGAGGAGGAGGUUUAUGGAAUUUUCGCCGGAUGUCUCCAAA [A14C A15C C50G G60C C67U] | 6.66e-05 ± 3e-05 s⁻¹ | – | – | – | –
17 | AUAAAAGCGCCAGAGCUACAGAAAUGUAGUUGACGAGGAGGAGGUUUAUCGAAUUUUCGGCUGAUGCCUCCAAA [A15G G62U] | < 1e-05 s⁻¹ | – | – | – | < 1e-05 s⁻¹
18 | AUAAAAGCGCCAGAACUACAGAAAUGUAGUUGACCAGGAGGAGGUUUAUCGAAUUUUAGGCGGAUGCCUCCAAA [G35C C58A] | < 1e-05 s⁻¹ | – | < 1e-05 s⁻¹ | – | < 1e-05 s⁻¹
19 | AUAAAAGCGCCAGAACUACAGAAAUGUAGUUGACGAGGAGGCGGUUUAUCGAGUUUUCGGCGGAUGCCUCCAAA [A42C A53G] | < 1e-05 s⁻¹ | < 1e-05 s⁻¹ | – | – | –
20 | AUAAAAGCGCCAGAACUACAGAAAUGUAGUUCACGAGGAGAAGGUUUAUCGCAUUUUCGGCGGAUGCCUCCAAA [G32C G41A A52C] | < 1e-05 s⁻¹ | < 1e-05 s⁻¹ | – | < 1e-05 s⁻¹ | –
21 | AUAAAAGCGCCAGAACUACAGAAAUGUAGUUGACGAGUAGGAGGUUUAUCGGAUUUUCGGCGGAUGCCGCCAAA [G38U A52G U69G] | 0.000147 ± 5.7e-05 s⁻¹ | – | – | – | 7.13e-05 ± 1.9e-05 s⁻¹
22 | AUAAAAGCGCCAGAACUACAGAAAUGUAGUUGACGAGGAGGAGGAUUAUCGAAGUUUCGGCGGAUGCCUCCAAA [U45A U54G] | 0.00129 ± 0.00023 s⁻¹ | 0.00383 ± 0.00079 s⁻¹ | 0.0132 ± 0.0028 s⁻¹ | 0.0113 ± 0.0021 s⁻¹ | 0.0501 ± 0.011 s⁻¹
23 | AUAAAAGCGCCAGCACUACAGAAAUGUAGUUGACGAGGAGGAGGUUUAUCGAAUGUUCGGCGGAUGCCUCCAAA [A14C U55G] | 9.05e-05 ± 2.8e-05 s⁻¹ | – | – | – | 0.00435 ± 0.0012 s⁻¹
24 | AUAAAAGCGCCAGAACUACAGAAAUGUAGUUGACGAGGAGGAGGUUUAUCGAAUUGUCGGCGUAUGCCUCCAAA [U56G G63U] | < 1e-05 s⁻¹ | < 1e-05 s⁻¹ | < 1e-05 s⁻¹ | – | < 1e-05 s⁻¹
25 | AUAAAAGCGCCAGAACUACAGAAAUGUAGUUGACGAGGAGGGUGUUUAUCGAAUUUUCGGCGGAUGCCUUCAAA [A42G G43U C70U] | < 1e-05 s⁻¹ | – | – | – | < 1e-05 s⁻¹
